Assay results: US20170096493A1 (EISAI R AND D MANAGEMENT, published 2017)
Values belong to the binder of their own block, whether it stands above or below them.

Assays:
[1] = target: T1, Human Notch4-NRR domain Fc fusion protein (human, UniProt Q99466 1046-1445, limits assumed); assay: SPR (Biacore) as for Table 30; Notch4-NRR-Fc captured, antibody injected; averaged, N=9
T1 construct: Expressed in a CHO cell line, used from culture supernatant; 1 is named; also called Human Notch4-NRR Fusion Protein; not shown: Fc
T1 sequence: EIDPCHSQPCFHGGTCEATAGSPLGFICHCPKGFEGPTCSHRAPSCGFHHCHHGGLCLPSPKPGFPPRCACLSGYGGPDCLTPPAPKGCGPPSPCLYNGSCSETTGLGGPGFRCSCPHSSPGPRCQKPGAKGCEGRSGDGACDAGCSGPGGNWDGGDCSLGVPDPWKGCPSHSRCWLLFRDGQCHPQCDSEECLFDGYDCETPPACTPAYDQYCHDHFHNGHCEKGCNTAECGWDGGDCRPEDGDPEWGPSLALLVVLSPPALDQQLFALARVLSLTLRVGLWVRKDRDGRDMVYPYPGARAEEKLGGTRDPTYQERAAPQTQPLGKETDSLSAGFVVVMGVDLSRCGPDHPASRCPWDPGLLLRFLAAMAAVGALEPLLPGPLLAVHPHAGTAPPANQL
Method: (§1) Kinetic analysis of further anti-Notch4 inhibitory humanized antibodies was carried out as follows. Human Notch4-NRR domain Fc fusion proteins were expressed with a CHO cell line. The antigen in the culture supernatant was captured by the anti-human Notch4 antibody fixed on a CM5 sensor chip that recognizes different epitopes of human Notch4. The humanized anti-human Notch4 antibody was then injected onto the sensor chip at various concentrations. The interaction and disassociation constants thereof were calculated according to manufacturer's instructions.

[2] = target: T2, Human Notch4-NRR-SEAP-HA-His (human, UniProt Q99466 1046-1445); assay: SPR (BIAcore T100); antibody captured by anti-human IgG Fc on CM5, NRR-SEAP-HA-His injected at 6 concentrations
T2 construct: also called human Notch4-NRR-SEAP-His; human Notch4 NRR domain; not shown: secretory alkaline phosphatase (SEAP); hemagglutinin (HA) tag; histidine tag (x10)
T2 sequence: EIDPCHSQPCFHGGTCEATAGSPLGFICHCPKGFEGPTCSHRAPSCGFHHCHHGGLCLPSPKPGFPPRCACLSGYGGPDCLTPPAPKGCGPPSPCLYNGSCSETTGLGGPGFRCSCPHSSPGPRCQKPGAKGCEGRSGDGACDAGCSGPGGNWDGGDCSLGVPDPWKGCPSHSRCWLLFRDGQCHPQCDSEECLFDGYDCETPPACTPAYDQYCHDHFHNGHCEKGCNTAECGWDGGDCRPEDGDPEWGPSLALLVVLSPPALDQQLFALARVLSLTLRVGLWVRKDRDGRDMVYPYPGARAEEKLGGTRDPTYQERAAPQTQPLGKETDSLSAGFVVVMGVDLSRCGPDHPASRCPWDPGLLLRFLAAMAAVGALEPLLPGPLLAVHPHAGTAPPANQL
Method: Kinetics analysis using BIAcore T100 was performed for the interaction between the NRR domain of human Notch isotypes (Notch1, Notch2, Notch3, and Notch4) and Antibody B. Antibody B was purified from the culture supernatant of a stable expression CHO cell line of Antibody B with sequential use of protein A affinity chromatography, Capto Q anion exchange chromatography, and UNOsphere S cation exchange chromatography. Fusion proteins of Human Notch1 NRR domain (Genbank Accession No. 017617; sequence positions 1307-1733), human Notch2 NRR domain (Genbank Accession No. 024408; sequence positions 1239-1650), human Notch3 NRR domain (Genbank Accession No. 000435; sequence positions 1246-1641), and human Notch4 NRR domain (Genbank Accession No. NP_004548.3; sequence positions 1046-1445) with secretory alkaline phosphatase (SEAP), a hemagglutinin (HA) tag, and a histidine tag (×10) were created, and these were purified with HisTrap™ Fast Flow column (GE Healthcare). The interaction between Antibody B and the NRR domain of each human Notch isotypes was measured with the following method. The purified Antibody B was captured by anti-human IgG Fc antibody fixed on a CM5 sensor chip (GE Healthcare). The purified NRR domain of each human Notch isotypes was injected onto the sensor chip at 6 different concentrations, and the interaction and dissociation with the antibody were observed as per operation manual.

[3] = target: T1, Human Notch4-NRR domain Fc fusion …; assay: SPR (Biacore); Notch4-NRR-Fc captured by another anti-Notch4 antibody on CM5, antibody injected
Method: as §1

[4] = target: T1, Human Notch4-NRR domain Fc fusion …; assay: SPR (Biacore) as for Table 30; Notch4-NRR-Fc captured, antibody injected; averaged, N=2
Method: as §1

[5] = target: T3, Notch4 with a part of the intracellular domain substituted with GAL4 DNA binding domain, on b.end3 reporter …; assay: cell-based or functional assay
[6] = target: T3, Notch4 with a part of the intracellular …; assay: cell-based or functional assay; remark: listed apart in the source
[7] = target: T4, Human Notch4-NRR domain fused with secretory alkaline phosphatase (SEAP) and 10× histidine tag (human, UniProt Q99466 1046-1445); assay: SPR (Biacore); antibody captured by anti-human IgG Fc on CM5, Notch4-NRR-SEAP-His injected
T4 construct: 1 is named; not shown: secretory alkaline phosphatase (SEAP); 10x histidine tag
T4 sequence: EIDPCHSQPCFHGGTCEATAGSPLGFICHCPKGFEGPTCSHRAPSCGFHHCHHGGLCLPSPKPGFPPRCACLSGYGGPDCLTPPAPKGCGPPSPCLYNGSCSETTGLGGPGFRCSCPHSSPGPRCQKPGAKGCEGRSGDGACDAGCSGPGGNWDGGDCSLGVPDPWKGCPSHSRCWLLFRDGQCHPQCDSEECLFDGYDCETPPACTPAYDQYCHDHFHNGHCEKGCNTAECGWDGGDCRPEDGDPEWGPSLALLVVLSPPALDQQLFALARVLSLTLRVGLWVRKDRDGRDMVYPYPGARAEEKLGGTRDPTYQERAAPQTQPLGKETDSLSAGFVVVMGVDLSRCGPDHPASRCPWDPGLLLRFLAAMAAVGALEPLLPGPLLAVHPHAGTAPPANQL
Method: (§2) Kinetic analysis of the interaction of human, cynomolgus monkey, mouse, and rat Notch4-NRR domains with Antibody B was carried out with BIACORE. […] The genes for these proteins were transfected into Expi293F cells in Opti-MEM (INVITROGEN) using ExpiFectamine 293. These cells were cultured in Expi293 Expression Medium (INVITROGEN). Briefly, cells were diluted to 7.5×10⁷ cells/25.5 mL, and transfected by ExpiFectamine 293 reagent on Day 0. About 16 hours after transfection, 150 uL of ExpiFectamine 293 Transfection Enhancer 1 and 1.5 mL of ExpiFectamine 293 Transfection Enhancer 2 were added to each flask. The supernatant was collected on Day 4. These antigens were purified with Ni-NTA Superflow column (QIAGEN). The interaction was analyzed as below. The purified Antibody B was captured by anti-human IgG Fc antibody fixed on a CM5 sensor chip (GE healthcare). The purified Notch4-NRR fusion proteins were injected onto the sensor chip at 8 different concentrations, and the interaction and dissociation thereof were observed as per manufacturer's instructions.

[8] = target: T5, Mouse Notch4-NRR domain fused with SEAP and 10× histidine tag (mouse, UniProt P31695 1042-1441); assay: as above
T5 construct: domain: Notch4-NRR domain; not shown: secretory alkaline phosphatase (SEAP); 10x histidine tag
T5 sequence (looked up): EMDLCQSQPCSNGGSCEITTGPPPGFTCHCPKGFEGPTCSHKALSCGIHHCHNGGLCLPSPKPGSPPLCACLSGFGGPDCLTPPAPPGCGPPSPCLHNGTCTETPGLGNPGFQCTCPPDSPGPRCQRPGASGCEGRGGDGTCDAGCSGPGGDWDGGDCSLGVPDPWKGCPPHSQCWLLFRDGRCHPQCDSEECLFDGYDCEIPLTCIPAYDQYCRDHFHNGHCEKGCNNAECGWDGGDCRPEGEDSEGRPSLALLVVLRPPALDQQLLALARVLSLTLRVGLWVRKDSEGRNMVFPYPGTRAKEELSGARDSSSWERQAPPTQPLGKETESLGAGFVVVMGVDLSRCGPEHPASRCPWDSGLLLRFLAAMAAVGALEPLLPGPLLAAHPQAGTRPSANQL
Method: as §2

[9] = target: T6, Cynomolgus monkey Notch4-NRR domain fused with SEAP and 10× histidine tag (cynomolgus monkey, UniProt P05187 23-511 (human entry)); assay: as above
T6 construct: not shown: 10x histidine tag
T6 sequence (P05187 23-511): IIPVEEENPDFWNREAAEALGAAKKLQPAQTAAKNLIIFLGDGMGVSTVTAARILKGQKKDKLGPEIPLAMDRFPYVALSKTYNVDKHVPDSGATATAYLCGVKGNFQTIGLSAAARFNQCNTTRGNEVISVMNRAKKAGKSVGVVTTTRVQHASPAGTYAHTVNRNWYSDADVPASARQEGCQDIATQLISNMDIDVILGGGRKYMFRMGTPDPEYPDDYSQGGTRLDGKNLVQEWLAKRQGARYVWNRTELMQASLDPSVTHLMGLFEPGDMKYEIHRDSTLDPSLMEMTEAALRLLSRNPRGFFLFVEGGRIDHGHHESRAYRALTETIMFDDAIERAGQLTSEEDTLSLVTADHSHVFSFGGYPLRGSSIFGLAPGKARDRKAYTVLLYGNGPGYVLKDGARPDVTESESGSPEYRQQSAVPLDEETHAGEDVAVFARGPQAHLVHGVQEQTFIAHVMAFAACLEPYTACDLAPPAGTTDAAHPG
Method: as §2

Kd [1]: 0.321 nM
koff [1]: 0.000742 s⁻¹
kon [1]: 2.35e+06 M⁻¹ s⁻¹
B1: Mouse anti-human Notch4 monoclonal antibody 6-3-A6 (antibody, V domains shown)
VH: EVQLVESGGGLVQPGGSLKLSCAASGFTFSSYGMSWVRQTPDKRLELVATINSNGGRTYYPDSVKGRFTISRDNAKNTLYLQMSSLKSEDTAMYYCARDQGFAYWGQGTLVTVSA
VL: DIVMTQSHKFMSTSVGDRVSITCKASQDVGTAVAWYQQKPGQSPKLLIYWASTRHTGVPDRFTGSGSGTDFTLTISNVQSEDLADYFCQQYSSYPWTFGGGTKLEIK
notes: Mouse hybridoma antibody; cloned with primers for mouse IgG1 heavy chain and mouse Igκ light chain; also called Original

Kd [2]: 30.5 nM
koff [2]: 0.000831 s⁻¹
kon [2]: 27200 M⁻¹ s⁻¹
Kd [3]: 0.441 nM
koff [3]: 0.00071 s⁻¹
kon [3]: 1.66e+06 M⁻¹ s⁻¹
Kd [4]: 0.331 nM
koff [4]: 0.000822 s⁻¹
kon [4]: 2.48e+06 M⁻¹ s⁻¹
IC50 of relative luminescence (%), Notch4-GAL4 luciferase reporter assay, reporter cells stimulated with solid phased DLL4 [5]: 0.011 µg/mL
% of Control (relative luminescence), Notch4-GAL4 luciferase reporter assay, antibody at 10 µg/ml [6]: 10.8 % of Control
Kd [7]: 3.74 nM
koff [7]: 0.00118 s⁻¹
kon [7]: 317000 M⁻¹ s⁻¹
Kd [8]: 11.2 nM
koff [8]: 0.00727 s⁻¹
kon [8]: 601000 M⁻¹ s⁻¹
Kd [9]: 3.62 nM
koff [9]: 0.00106 s⁻¹
kon [9]: 295000 M⁻¹ s⁻¹
B2: Antibody B (antibody, human IgG2, kappa)
heavy: EVQLVESGGGLVQPGGSLRLSCAASGFTFSSYGMSWVRQAPGKGLELVATINSNGGRTYYPDSVKGRFTISRDNSKNTLYLQMGSLKAEDMAVYYCARDQGFAYWGQGTLVTVSSASTKGPSVFPLAPCSRSTSESTAALGCLVKDYFPEPVTVSWNSGALTSGVHTFPAVLQSSGLYSLSSVVTVPSSNFGTQTYTCNVDHKPSNTKVDKTVERKCCVECPPCPAPPAAAPSVFLFPPKPKDTLMISRTPEVTCVVVDVSHEDPEVQFNWYVDGVEVHNAKTKPREEQFNSTFRVVSVLTVVHQDWLNGKEYKCKVSNKGLPAPIEKTISKTKGQPREPQVYTLPPSREEMTKNQVSLTCLVKGFYPSDIAVEWESNGQPENNYKTTPPMLDSDGSFFLYSKLTVDKSRWQQGNVFSCSVMHEALHNHYTQKSLSLSPG
light: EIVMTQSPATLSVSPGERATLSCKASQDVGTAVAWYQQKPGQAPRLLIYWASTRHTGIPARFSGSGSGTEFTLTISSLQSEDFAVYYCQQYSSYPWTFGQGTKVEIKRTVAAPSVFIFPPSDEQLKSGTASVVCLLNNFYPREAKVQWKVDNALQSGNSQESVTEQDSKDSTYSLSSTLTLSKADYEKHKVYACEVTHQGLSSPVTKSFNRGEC
notes: Humanized IgG2 (V234A, G237A)/κ; also called HK3L3 (Lys-); HK3L3(Lys-)
